Where a SMILES comes first, the peptide text is derived from it. The star is where a group is joined. Cbz = O=C(OCc1ccccc1)*
B1: GFP-tagged regulatory proteasome non-ATPase subunit 13 (RPN13) (other, UniProt Q16186 1-407, looked up)
chain: MTTSGALFPSLVPGSRGASNKYLVEFRAGKMSLKGTTVTPDKRKGLVYIQQTDDSLIHFCWKDRTSGNVEDDLIIFPDDCEFKRVPQCPSGRVYVLKFKAGSKRLFFWMQEPKTDQDEEHCRKVNEYLNNPPMPGALGASGSSGHELSALGGEGGLQSLLGNMSHSQLMQLIGPAGLGGLGGLGALTGPGLASLLGSSGPPGSSSSSSSRSQSAAVTPSSTTSSTRATPAPSAPAAASATSPSPAPSSGNGASTAASPTQPIQLSDLQSILATMNVPAGPAGGQQVDLASVLTPEIMAPILANADVQERLLPYLPSGESLPQTADEIQNTLTSPQFQQALGMFSAALASGQLGPLMCQFGLPAEAVEAANKGDVEAFAKAMQNNAKPEQKEGDTKDKKDEEEDMSLD
notes: Transfected construct; not shown: GFP tag
B2: BBS5 (other, UniProt Q8N3I7 1-341, looked up)
chain: MSVLDALWEDRDVRFDLSAQQMKTRPGEVLIDCLDSIEDTKGNNGDRGRLLVTNLRILWHSLALSRVNVSVGYNCILNITTRTANSKLRGQTEALYILTKCNSTRFEFIFTNLVPGSPRLFTSVMAVHRAYETSKMYRDFKLRSALIQNKQLRLLPQEHVYDKINGVWNLSSDQGNLGTFFITNVRIVWHANMNDSFNVSIPYLQIRSIKIRDSKFGLALVIESSQQSGGYVLGFKIDPVEKLQESVKEINSLHKVYSASPIFGVDYEMEEKPQPLEALTVEQIQDDVEIDSDGHTDAFVAYFADGNKQQDREPVFSEELGLAIEKLKDGFTLQGLWEVMS
notes: Tested in the same co-IP series as the Myc- or HA-tagged BBS proteins
B3: GFP-tagged PSMB1 (proteasome subunit beta type 1, subunit in the 20S particle) (other, UniProt P20618 1-241, looked up)
chain: MLSSTAMYSAPGRDLGMEPHRAAGPLQLRFSPYVFNGGTILAIAGEDFAIVASDTRLSEGFSIHTRDSPKCYKLTDKTVIGCSGFHGDCLTLTKIIEARLKMYKHSNNKAMTTGAIAAMLSTILYSRRFFPYYVYNIIGGLDEEGKGAVYSFDPVGSYQRDSFKAGGSASAMLQPLLDNQVGFKNMQNVEHVPLSLDRAMRLVKDVFISAAERDVYTGDALRICIVTKEGIREETVSLRKD
notes: as for B1
B4: GFP-tagged regulatory proteasome non-ATPase subunit 10 (RPN10) (other, UniProt P55036 1-377, looked up)
chain: MVLESTMVCVDNSEYMRNGDFLPTRLQAQQDAVNIVCHSKTRSNPENNVGLITLANDCEVLTTLTPDTGRILSKLHTVQPKGKITFCTGIRVAHLALKHRQGKNHKMRIIAFVGSPVEDNEKDLVKLAKRLKKEKVNVDIINFGEEEVNTEKLTAFVNTLNGKDGTGSHLVTVPPGPSLADALISSPILAGEGGAMLGLGASDFEFGVDPSADPELALALRVSMEEQRQRQEEEARRAAAASAAEAGIATTGTEDSDDALLKMTISQQEFGRTGLPDLSSMTEEEQIAYAMQMSLQGAEFGQAESADIDASSAMDTSEPAKEEDDYDVMQDPEFLQSVLENLPGVDPNNEAIRNAMGSLASQATKDGKKDKKEEDKK
notes: Transfected expression construct; also called GFP-tagged RPN10; not shown: GFP tag

Legend:
[1] = test system: her4 expression (Notch target) in bbs4 morphant zebrafish embryos; experiment: Whole-mount RNA in situ hybridization of her4 in morphant zebrafish; type: in vivo; conditions: bbs4 morphants, coinjection, 4.5 dpf
Method: (§1) Morpholinos against bbs1 ([NT] ID NO: 13), bbs4 ([NT] ID NO: 14), and ofd1 ([NT] ID NO: 15) were purchased from Gene Tools, LLC. Human RPN10, RPN13, and RPT6 mRNA were in vitro transcribed with a mMESSAGE mMACHINE SP6 Kit (Ambion). SFN was dissolved in DMSO (Sigma-Aldrich) at a stock concentration of 1 M and further diluted in water to 10 mM. The morpholino and mRNA or SFN were mixed, and a volume of 0.5 nl was microinjected. Zebrafish embryos were fixed overnight in 4% PFA at 4° C. Residual pigment was removed by bleaching with 3% H2O2/0.5% KOH.

[2] = test system: bbs4, bbs1 and ofd1 morphant zebrafish embryos; experiment: Convergent extension (CE) and somite defects in morphant zebrafish embryos, coinjection; type: in vivo; conditions: coinjection with bbs4 morpholino
Method: as §1, with “microinjected.” for “microinjected. Zebrafish embryos were fixed overnight in 4% PFA at 4° C. Residual pigment was removed by bleaching with 3% H2O2/0.5% KOH.”

[3] = test system: NICD; experiment: Immunoblot of NICD in BBS4-overexpressing cells treated with proteasome inhibitors; type: cell-based; conditions: MG132 30 μM 5 hours, lactacystin 20 μM 5 hours
Method: (§3) Transfected cells and mouse tissues were lysed in modified RIPA buffer [150 mM sodium chloride, 50 mM Tris-HCl, pH7.4, 1% nonidet P-40, 0.1% sodium deoxycholate, 1 mM EDTA] with 1× proteasome inhibitor (Roche) and centrifuged at 4° C. for 15 minutes. […] Total protein in each sample was separated by SDS-PAGE on 4% to 15% Mini-PROTEAN TGX Precast Gel (Bio-Rad) with a Spectra Multicolor Broad Range Protein Ladder (Fermentas) and transferred to an Immun-Blot PVDF Membrane (Bio-Rad). […] Densitometric analysis was performed with Image Lab (Bio-Rad), Quantity One (Bio-Rad), or ImageJ 1.44p (NIH) software.
(§4) Drug treatment was carried out at a final concentration of 10 μM SFN (Sigma-Aldrich) for 6 to 24 hours, 30 μm N-carbobenzoxyl- ? -leucinyl- ? -leucinyl- ? -norleucinal (MG132; Calbiochem) for 5 hours, 20 μM lactacystin (EMD Bioscience) for 5 hours, and 50 ng/ml TNF-α (Sigma-Aldrich) for 12 hours.

[4] = test system: JAG1; experiment: Immunoblot of GFP-JAG1 in BBS4-overexpressing cells treated with proteasome inhibitor; type: cell-based; conditions: proteasome inhibitor 5 hours
Method: as §3, §4

[5] = biological target: T1, BBS10 (UniProt Q8TAM1 1-723, limits assumed); experiment: co-immunoprecipitation, 1% Triton X-100
T1 construct: Tested in the same co-IP series as the Myc- or HA-tagged BBS proteins
T1 sequence (looked up): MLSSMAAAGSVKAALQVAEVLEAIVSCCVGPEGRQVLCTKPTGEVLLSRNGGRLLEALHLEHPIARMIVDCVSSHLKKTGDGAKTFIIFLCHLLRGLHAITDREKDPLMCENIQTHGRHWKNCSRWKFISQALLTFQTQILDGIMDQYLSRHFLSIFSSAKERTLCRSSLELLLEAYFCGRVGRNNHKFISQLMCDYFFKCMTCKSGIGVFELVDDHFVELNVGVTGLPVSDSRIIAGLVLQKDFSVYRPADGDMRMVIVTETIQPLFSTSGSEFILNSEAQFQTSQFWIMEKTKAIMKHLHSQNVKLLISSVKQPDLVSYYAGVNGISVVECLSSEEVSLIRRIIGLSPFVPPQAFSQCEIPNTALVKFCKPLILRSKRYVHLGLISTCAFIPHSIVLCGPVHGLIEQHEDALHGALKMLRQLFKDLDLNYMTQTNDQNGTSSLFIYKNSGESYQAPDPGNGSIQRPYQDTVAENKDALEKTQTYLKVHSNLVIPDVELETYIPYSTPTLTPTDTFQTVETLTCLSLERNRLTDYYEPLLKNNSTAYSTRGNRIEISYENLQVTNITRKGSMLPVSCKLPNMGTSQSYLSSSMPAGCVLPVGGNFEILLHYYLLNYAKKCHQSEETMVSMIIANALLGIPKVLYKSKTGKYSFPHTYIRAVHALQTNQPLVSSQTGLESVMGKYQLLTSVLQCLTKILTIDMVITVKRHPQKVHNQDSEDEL
Method: (§2) First, an unbiased mass spectrometry screen was conducted to identify putative OFD1-interacting proteins. This experiment uncovered a spectrum of proteasomal subunits including regulatory proteasome ATPase subunit 6 (RPT6), a finding confirmed by semiendogenous coimmunoprecipitation (FIG. 4A). […] To test the physiological relevance of a BBS-proteasome interactome, it was determined that BBS1 and RPN10 interacted at endogenous levels in protein lysates isolated from C57BL/6 mouse testes (FIG. 4A). To probe the relevance of these interactions, the question was asked whether loss of OFD1 or BBS4 alters the composition of the proteasome with respect to its subunits. Using a stable cell line expressing tagged regulatory proteasome non-ATPase subunit 11 (RPN11) (37), OFD1 was suppressed, 26S proteasome complexes were purified, and a robust reduction was observed (60%±8%) of 26S-bound regulatory proteasome ATPase subunit 2 (RPT2) in OFD1-depleted cells in comparison with that in control, while total RPT2 protein abundance was not affected by OFD1 depletion (FIG. 4B).

[6] = biological target: B4; experiment: co-immunoprecipitation, 1% Triton X-100
Method: as §2

[7] = biological target: T2, GFP-tagged regulatory proteasome ATPase subunit 6 (RPT6) (UniProt P62195 1-406); experiment: co-immunoprecipitation, 1% Triton X-100
T2 construct: Transfected construct; not shown: GFP tag
Method: as §2

[8] = biological target: B1; experiment: co-immunoprecipitation, 1% Triton X-100
Method: as §2

[9] = biological target: B2; experiment: co-immunoprecipitation, 1% Triton X-100
Method: as §2

T2 sequence (P62195 whole entry): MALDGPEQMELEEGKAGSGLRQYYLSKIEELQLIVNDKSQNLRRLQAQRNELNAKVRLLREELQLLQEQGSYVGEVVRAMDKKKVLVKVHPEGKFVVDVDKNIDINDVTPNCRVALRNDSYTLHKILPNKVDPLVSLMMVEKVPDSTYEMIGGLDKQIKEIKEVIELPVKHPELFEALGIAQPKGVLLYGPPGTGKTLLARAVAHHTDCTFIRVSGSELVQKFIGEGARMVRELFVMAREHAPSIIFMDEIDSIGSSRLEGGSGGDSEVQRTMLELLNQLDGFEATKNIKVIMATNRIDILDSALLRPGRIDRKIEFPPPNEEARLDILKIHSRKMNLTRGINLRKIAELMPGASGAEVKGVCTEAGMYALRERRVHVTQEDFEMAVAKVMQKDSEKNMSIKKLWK

CC1(O)CCOC(=O)C1 (racemic) [MVA, (±)-β-hydroxy-β-methyl-δ-valerolactone]
ectopic expression of her4 in neural structures [1]: reduced
bbs4 morphant zebrafish with CE defects ([2]; 9±1 ss, 47.8% without MVA): 11.4%
bbs4 morphants with CE and somitic defects ([2]; blind scoring at 9±1 ss): rescues

CC(C)C[C@@H](C=O)NC(=O)[C@H](CC(C)C)NC(=O)[C@H](CC(C)C)NC(=O)OCc1ccccc1 [MG132] (Cbz-Leu-Leu-Leu-aldehyde)
NICD protein levels, of basal levels [3]: 93%
JAG1 levels, of basal levels [4]: 99%±38%

CC(=O)N[C@@H](CSC(=O)[C@]1([C@@H](O)C(C)C)NC(=O)[C@H](C)[C@@H]1O)C(=O)O [lactacystin]
NICD protein levels, of basal levels [3]: 138%

B1
binding result [5]: no binding

B2
binding result [6]: no binding
binding result [7]: no binding
binding result [8]: no binding

B3
binding result [5]: no binding
binding result [9]: no binding

B4
binding result [5]: no binding

Source: patent US20170016915A1, “SCREENING TARGETS AND COMPOSITIONS AND METHODS FOR TREATMENT OF CILIOPATHY DISORDERS” (Duke University, priority 2014, published 2017)
